Consider one molecule from patent US10456446B2, “Use of human small leucine zipper protein in osteogenesis procedure” (Korea University Research and Business Foundation, priority 2013, dated 2019).

The test system of data set [1] is primary MSCs and C3H10T1/2 cells. Briefly: Osteoblast differentiation in primary MSCs and C3H10T1/2 cells. It counts as cell-based. The conditions noted are these: differentiation medium for 8 days. Here is the method:
Primary human mesenchymal stem cells (MSCs), C3H10T1/2, 293T and MEF cells were cultured in a DMEM to which thermally inactivated 10% FBS and penicillin (100 U/mL)/streptomycin (100 μg/mL) were added. All cell types were cultured in a humidified incubator containing CO2 5% under a temperature condition of 37° C. In order to induce osteoblast differentiation, the medium was exchanged with a DMEM in which 50 μg/mL of ascorbic acid, 10 mM of β-glycerophosphate and 10% FBS were contained for 8 days. The differentiation medium was changed once every two days.
C3H10T1/2 and 293T cells were plated in a 12-well culture dish at a density of 2×10^5 cells/well and incubated for 24 hours. Then, according to instructions of the manufacturer, the cells were transfected with a 0.2 μg of reporter genes and 0.1 to 0.5 μg of a laboratory plasmid using Lipofectamine 2000 or Genefectine. After 24 hours, the cells were cultured in a serum-free DMEM with or without 10 nM of rosiglitazone. siRNAs were prepared using sLZIP and HDAC target sequences (Table 1). […]
Therefore, in order to characterize a potential role of sLZIP in the transcriptional activity of Runx2 by inhibiting the transcriptional activity of PPARγ2, the transcriptional activity of Runx2 was examined. […] A promoter activity was measured by luciferase analysis. […]

Data set [2] in a line: Solubility in saline or buffer solution. It counts as physicochemical.
The target of data set [3] is T1, PPARγ2 (Mus musculus, UniProt P37238).
T1 construct: endogenous in cells
T1 sequence (P37238 1-505): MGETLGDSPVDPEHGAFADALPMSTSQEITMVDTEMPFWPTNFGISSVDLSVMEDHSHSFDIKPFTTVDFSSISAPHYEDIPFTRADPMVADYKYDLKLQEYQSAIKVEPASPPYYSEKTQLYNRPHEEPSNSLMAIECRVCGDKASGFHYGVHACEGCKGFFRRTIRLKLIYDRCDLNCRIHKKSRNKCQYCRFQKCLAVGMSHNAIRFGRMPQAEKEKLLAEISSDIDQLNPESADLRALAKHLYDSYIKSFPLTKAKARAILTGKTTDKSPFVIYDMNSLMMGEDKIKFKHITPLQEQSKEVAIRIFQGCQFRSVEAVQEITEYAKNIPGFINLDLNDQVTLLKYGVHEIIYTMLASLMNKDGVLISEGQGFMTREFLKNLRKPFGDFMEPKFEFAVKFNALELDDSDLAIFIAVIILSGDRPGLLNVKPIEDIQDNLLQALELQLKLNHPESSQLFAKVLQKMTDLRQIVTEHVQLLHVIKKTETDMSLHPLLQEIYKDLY
Briefly: PPARγ2 transcriptional activity in FABP4-Luc stable C3H10T1/2 cells differentiated into adipocytes. The conditions noted are these: sLZIP-expressing adenovirus, differentiated into adipocytes for 4 days. It counts as cell-based.

B1: sLZIP: human small leucine-zipper protein, isoform of LZIP, 354 amino acids, no transmembrane domain, GenBank FJ263669, SEQ ID NO: 1 (protein, listed as Homo sapiens)
chain: MELELDAGDQDLLAFLLEESGDLGTAPDEAVRAPLDWALPLSEVPSDWEVDDLLCSLLSPPASLNILSSSNPCLVHHDHTYSLPRETVSMDLESESCRKEGTQMTPQHMEELAEQEIARLVLTDEEKSLLEKEGLILPETLPLTKTEEQILKRVRRKIRNKRSAQESRRKKKVYVGGLESRVLKYTAQNMELQNKVQLLEEQNLSLLDQLRKLQAMVIEISNKTSSSSMYSSDTRGSLPAEHGVLSRQLRALPSEDPYQLELPALQSEVPKDSTHQWLDGSDCVLQAPGNTSCLLHYMPQAPSAEPPLEWPFPDLFSEPLCRGPILPLQANLTRKGGWLPTGSPSVILQDRYSG
Turning to B1, the osteoblast differentiation entry in data set [1] is “increased osteoblast differentiation”. In addition, the solubility result in data set [2] was “very soluble”. In addition, the “transcriptional activity of PPARγ2 (relative luciferase activity)” value in data set [3] is on record as “decreased”.
